Test results as given in patent US20260240820A1 (ION CHAT RESEARCH CORPORATE, published 2026).
Where no end group is shown, it is not given here.

B1: Human Type I taste receptor T1R3 (receptor, UniProt Q7RTX0 21-852, looked up)
chain: APLCLSQQLRMKGDYVLGGLFPLGEAEEAGLRSRTRPSSPVCTRFSSNGLLWALAMKMAVEEINNKSDLLPGLRLGYDLFDTCSEPVVAMKPSLMFLAKAGSRDIAAYCNYTQYQPRVLAVIGPHSSELAMVTGKFFSFFLMPQVSYGASMELLSARETFPSFFRTVPSDRVQLTAAAELLQEFGWNWVAALGSDDEYGRQGLSIFSALAAARGICIAHEGLVPLPRADDSRLGKVQDVLHQVNQSSVQVVLLFASVHAAHALFNYSISSRLSPKVWVASEAWLTSDLVMGLPGMAQMGTVLGFLQRGAQLHEFPQYVKTHLALATDPAFCSALGEREQGLEEDVVGQRCPQCDCITLQNVSAGLNHHQTFSVYAAVYSVAQALHNTLQCNASGCPAQDPVKPWQLLENMYNLTFHVGGLPLRFDSSGNVDMEYDLKLWVWQGSVPRLHDVGRFNGSLRTERLKIRWHTSDNQKPVSRCSRQCQEGQVRRVKGFHSCCYDCVDCEAGSYRQNPDDIACTFCGQDEWSPERSTRCFRRRSRFLAWGEPAVLLLLLLLSLALGLVLAALGLFVHHRDSPLVQASGGPLACFGLVCLGLVCLSVLLFPGQPSPARCLAQQPLSHLPLTGCLSTLFLQAAEIFVESELPLSWADRLSGCLRGPWAWLVVLLAMLVEVALCTWYLVAFPPEVVTDWHMLPTEALVHCRTRSWVSFGLAHATNATLAFLCFLGTFLVRSQPGCYNRARGLTFAMLAYFITWVSFVPLLANVQVVLRPAVQMGALLLCVLGILAAFHLPRCYLLMRQPGLNTPEFFLGGGPGDAQGQNDGNTGNQGKHE
notes: whole, on cells; Present on the cells as a T1R3/T1R3 homodimer or as a heterodimer with T1R2 or T1R1; also called TAS1R3; hT1R3

Legend:
[1] = biological target: B1; assay: fluorescence microscopy on SH-SY5Y cells
[2] = biological target: T1, Amyloid β peptide Aβ1-42; assay: assay not described
T1 construct: Bought (Wako Pure Chemical Industries); also called Aβ42; amyloid β1-42 peptide

[3] = biological target: T2, Fluorescent Aβ1-40 peptide (fluorescent label; dye and position not stated); assay: fluorescence microscopy on cell surfaces
T2 construct: also called labeled Aβ1-40 peptide
T2 sequence (peptide, as listed by the source): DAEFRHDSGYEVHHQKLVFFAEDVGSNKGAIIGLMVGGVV

T1 sequence (peptide, as listed by the source): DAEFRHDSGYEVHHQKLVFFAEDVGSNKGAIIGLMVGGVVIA

binding result [1] | binding result [2] | binding result [3] | Binder
binds |  |  | GSNKGAIIGLM (also: fluorescent label, dye and position not given here, also called fluorescent Aβ25-35 peptide) [Fluorescently labeled Aβ25-35 peptide (FL-Aβ25-35)]
 | binds | binds | B1
